Consider eight molecules from paper PMC3794620, “The Pyridoxal 5′-Phosphate (PLP)-Dependent Enzyme Serine Palmitoyltransferase (SPT): Effects of the Small Subunits and Insights from Bacterial Mimics of Human hLCB2a HSAN1 Mutations” (BioMed Research International, 2013).

Data set [1] concerns the target T1, Sp SPT (Sphingomonas paucimobilis, UniProt Q93UV0).
T1 construct: full-length soluble enzyme, pET28a, C-terminal His6 tag, E. coli BL21(DE3), Ni-NTA and gel filtration, homodimer ~90 kDa, PLP holoform
T1 sequence (Q93UV0 1-420): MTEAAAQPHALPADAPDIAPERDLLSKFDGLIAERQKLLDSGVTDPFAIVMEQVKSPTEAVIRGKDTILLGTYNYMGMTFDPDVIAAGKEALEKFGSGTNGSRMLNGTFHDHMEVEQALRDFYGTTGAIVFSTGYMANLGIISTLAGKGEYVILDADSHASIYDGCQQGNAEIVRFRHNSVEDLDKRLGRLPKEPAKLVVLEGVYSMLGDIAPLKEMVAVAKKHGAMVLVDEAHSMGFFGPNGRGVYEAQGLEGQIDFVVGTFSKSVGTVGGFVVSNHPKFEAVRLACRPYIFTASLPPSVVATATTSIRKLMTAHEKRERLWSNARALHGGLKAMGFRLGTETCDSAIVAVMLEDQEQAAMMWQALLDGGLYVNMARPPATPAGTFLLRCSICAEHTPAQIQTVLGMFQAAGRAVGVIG
Put plainly: UV-visible titration, absorbance change at […] nm (external aldimine). The format is binding. The conditions noted are these: read-out: Kd ^L-ser.

Data set [2] addresses T2, Sp SPT (Sphingomonas paucimobilis, UniProt Q93UV0, G385F).
T2 construct: full-length soluble enzyme, pET28a, C-terminal His6 tag, E. coli BL21(DE3), Ni-NTA and gel filtration, homodimer ~90 kDa, PLP holoform
T2 sequence (Q93UV0 1-420 G385F): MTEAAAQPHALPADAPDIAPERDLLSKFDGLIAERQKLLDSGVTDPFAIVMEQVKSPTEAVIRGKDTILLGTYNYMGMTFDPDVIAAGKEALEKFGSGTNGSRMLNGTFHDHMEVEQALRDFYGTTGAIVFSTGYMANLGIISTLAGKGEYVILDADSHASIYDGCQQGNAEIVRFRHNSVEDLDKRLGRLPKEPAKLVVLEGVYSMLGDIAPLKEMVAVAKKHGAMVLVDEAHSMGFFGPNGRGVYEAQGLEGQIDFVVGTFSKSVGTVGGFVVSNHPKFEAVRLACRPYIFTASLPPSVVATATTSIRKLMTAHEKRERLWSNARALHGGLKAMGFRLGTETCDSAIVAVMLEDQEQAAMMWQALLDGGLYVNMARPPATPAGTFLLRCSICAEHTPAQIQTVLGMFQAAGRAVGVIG
The data set is described as above. It counts as binding. The conditions noted are these: read-out: Kd ^L-ser.

Data set [3] deals with T3, Sp SPT (Sphingomonas paucimobilis, UniProt Q93UV0, V246M).
T3 construct: full-length soluble enzyme, pET28a, C-terminal His6 tag, E. coli BL21(DE3), Ni-NTA and gel filtration, homodimer ~90 kDa, PLP holoform
T3 sequence (Q93UV0 1-420 V246M): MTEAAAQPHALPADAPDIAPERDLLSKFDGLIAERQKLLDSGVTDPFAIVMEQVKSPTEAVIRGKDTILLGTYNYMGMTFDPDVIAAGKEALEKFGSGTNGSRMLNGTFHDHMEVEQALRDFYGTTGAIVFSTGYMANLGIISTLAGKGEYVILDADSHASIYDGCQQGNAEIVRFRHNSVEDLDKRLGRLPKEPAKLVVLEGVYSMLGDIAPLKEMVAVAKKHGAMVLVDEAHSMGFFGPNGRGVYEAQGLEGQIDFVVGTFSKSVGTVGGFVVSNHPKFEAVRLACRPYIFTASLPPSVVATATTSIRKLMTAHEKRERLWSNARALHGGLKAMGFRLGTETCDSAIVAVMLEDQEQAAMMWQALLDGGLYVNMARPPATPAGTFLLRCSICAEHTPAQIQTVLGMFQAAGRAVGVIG
The data set is described as above. It counts as binding. To be noted: read-out: Kd ^L-ser.

Data set [4] has as its target T1, Sp SPT. Put plainly: UV-visible spectroscopy, quinonoid peak at ~[…] nm. To be noted: 1.5 mM analogue, 50 mM L-serine, 40 μM enzyme, 25 °C, 15 min. The format is binding.
Data set [5] deals with T1, Sp SPT. Briefly: UV-visible spectroscopy of internal aldimine. It counts as binding. The conditions noted are these: covalent (imine to Lys265), 40 μM enzyme, 20 mM potassium phosphate pH 7.5, 150 mM NaCl, 25 °C.
The test system of the next data set is T4, N[C@@H](CO)C(=O)O.
T4 construct: full-length soluble enzyme, pET28a, C-terminal His6 tag, E. coli BL21(DE3), Ni-NTA and gel filtration, homodimer ~90 kDa, PLP holoform
Put plainly: DTNB assay of CoASH release, Michaelis-Menten fit. The conditions noted are these: co-substrate palmitoyl-CoA. The format is biochemical, Sphingomonas paucimobilis. From the text:
(§1) DTNB assay of CoASH release, Michaelis-Menten fit on Sp SPT

The subject of data set [6] is T5, CCCCCCCCCCCCCCCC(=O)SCCNC(=O)CCNC(=O)[C@H](O)C(C)(C)COP(=O)(O)OP(=O)(O)OC[C@H]1O[C@@H](n2cnc3c(N)ncnc32)[C@H](O)[C@@H]1OP(=O)(O)O.
T5 construct: full-length soluble enzyme, pET28a, C-terminal His6 tag, E. coli BL21(DE3), Ni-NTA and gel filtration, homodimer ~90 kDa, PLP holoform
Put plainly: DTNB assay of CoASH release, Michaelis-Menten fit. The format is biochemical, Sphingomonas paucimobilis. The conditions noted are these: co-substrate L-serine.
Source text: as §1

Substrate in data set [7]: N[C@@H](CO)C(=O)O
Briefly: DTNB assay of CoASH release, Michaelis-Menten fit. It counts as biochemical, Sphingomonas paucimobilis. To be noted: co-substrate palmitoyl-CoA.
Source text: as §1

Substrate in data set [8]: CCCCCCCCCCCCCCCC(=O)SCCNC(=O)CCNC(=O)[C@H](O)C(C)(C)COP(=O)(O)OP(=O)(O)OC[C@H]1O[C@@H](n2cnc3c(N)ncnc32)[C@H](O)[C@@H]1OP(=O)(O)O
Briefly: DTNB assay of CoASH release, Michaelis-Menten fit. The format is biochemical, Sphingomonas paucimobilis. The conditions noted are these: co-substrate L-serine.
Source text: as §1

Data set [9] deals with the molecule itself. Briefly: SEC; size exclusion chromatography of the purified enzymes; data not shown. A general note: In gel filtration, larger molecules generally elute earlier.

What is called Kd is the equilibrium constant for the complex coming apart. `N[C@@H](CO)C(=O)O` [L-serine]: the equilibrium dissociation constant (Kd) on Sp SPT [1] amounted to 1.1 ± 0.1 mM; on Sp SPT [2], 4.7 ± 0.1 mM; on Sp SPT [3], 1.5 ± 0.1 mM.

Consider `CCCCCCCCCCCCCCCC(=O)CSCCNC(=O)CCNC(=O)[C@H](O)C(C)(C)COP(=O)(O)OP(=O)(O)OC[C@H]1O[C@@H](n2cnc3c(N)ncnc32)[C@H](O)[C@@H]1OP(=O)(O)O` [S-(2-oxoheptadecyl)-CoA], for which the “UV-visible spectroscopy, quinonoid peak at ~495 nm” value on Sp SPT [4] is “Addition of the analogue to the PLP-L-serine external aldimine form of the wild-type SPT”.

As to `Cc1ncc(COP(=O)(O)O)c(C=O)c1O` [pyridoxal 5′-phosphate], the “UV-visible spectroscopy of internal aldimine” value on Sp SPT [5] was “characteristic of the holo-, PLP-bound internal aldimine form of the enzyme”.

What is called Km is the concentration of substrate that gives half-maximal velocity. In general, kcat/Km refers to the second-order rate constant that governs catalysis at low substrate concentration. For “Sp SPT (Sphingomonas paucimobilis; G385F)”, in the data set on N[C@@H](CO)C(=O)O, the Km was determined as 3000 ± 500 µM, the kcat is on record as 41 ± 2.0 × 10^-2 s^-1 and the specificity constant (kcat/Km) was 136 M⁻¹ s⁻¹. In addition, in data set [6], the Km was 52.2 ± 8.0 µM, the kcat was 41 ± 2.0 × 10^-2 s^-1 and the kcat/Km came out at 7850 M⁻¹ s⁻¹.

Consider “Sp SPT (Sphingomonas paucimobilis; V246M)”, for which, in the data set on N[C@@H](CO)C(=O)O, the Km was determined as 2500 ± 200 µM, the kcat is reported as 44 ± 1.2 × 10^-2 s^-1 and the kcat/Km came out at 176 M⁻¹ s⁻¹. For the same molecule, in data set [6], the Km was 128.0 ± 10.0 µM, the kcat is 44 ± 1.2 × 10^-2 s^-1 and the kcat/Km is 3440 M⁻¹ s⁻¹.

B1: Sp SPT (Sphingomonas paucimobilis) (protein)
chain: MTEAAAQPHALPADAPDIAPERDLLSKFDGLIAERQKLLDSGVTDPFAIVMEQVKSPTEAVIRGKDTILLGTYNYMGMTFDPDVIAAGKEALEKFGSGTNGSRMLNGTFHDHMEVEQALRDFYGTTGAIVFSTGYMANLGIISTLAGKGEYVILDADSHASIYDGCQQGNAEIVRFRHNSVEDLDKRLGRLPKEPAKLVVLEGVYSMLGDIAPLKEMVAVAKKHGAMVLVDEAHSMGFFGPNGRGVYEAQGLEGQIDFVVGTFSKSVGTVGGFVVSNHPKFEAVRLACRPYIFTASLPPSVVATATTSIRKLMTAHEKRERLWSNARALHGGLKAMGFRLGTETCDSAIVAVMLEDQEQAAMMWQALLDGGLYVNMARPPATPAGTFLLRCSICAEHTPAQIQTVLGMFQAAGRAVGVIG
notes: full-length soluble enzyme, pET28a, C-terminal His6 tag, E. coli BL21(DE3), Ni-NTA and gel filtration, homodimer ~90 kDa, PLP holoform
On to B1, for which, in data set [7], the Michaelis-Menten constant (Km) is 1600 ± 90 µM, the kcat was 114 ± 2.0 × 10^-2 s^-1 and the specificity constant (kcat/Km) came to 712 M⁻¹ s⁻¹. Further, in data set [8], the Michaelis-Menten constant (Km) is 35.6 ± 2.0 µM, the kcat was 114 ± 2.0 × 10^-2 s^-1 and the catalytic efficiency (kcat/Km) came out at 32000 M⁻¹ s⁻¹.

B2: Sphingomonas paucimobilis serine palmitoyltransferase G385F (mimic of hLCB2a I504F) (enzyme)
chain: MTEAAAQPHALPADAPDIAPERDLLSKFDGLIAERQKLLDSGVTDPFAIVMEQVKSPTEAVIRGKDTILLGTYNYMGMTFDPDVIAAGKEALEKFGSGTNGSRMLNGTFHDHMEVEQALRDFYGTTGAIVFSTGYMANLGIISTLAGKGEYVILDADSHASIYDGCQQGNAEIVRFRHNSVEDLDKRLGRLPKEPAKLVVLEGVYSMLGDIAPLKEMVAVAKKHGAMVLVDEAHSMGFFGPNGRGVYEAQGLEGQIDFVVGTFSKSVGTVGGFVVSNHPKFEAVRLACRPYIFTASLPPSVVATATTSIRKLMTAHEKRERLWSNARALHGGLKAMGFRLGTETCDSAIVAVMLEDQEQAAMMWQALLDGGLYVNMARPPATPAFTFLLRCSICAEHTPAQIQTVLGMFQAAGRAVGVIG
modifications: PLP cofactor covalently bound as an imine to Lys265
notes: serine palmitoyltransferase of Sphingomonas paucimobilis with G385F, made on pET 28a/Sp SPT; The PDB entries are of the wild-type parent; also called Sp SPT G385F; SPT G385F
The stoichiometry N is a count of units in the complex or per binding partner. As for B2, in data set [9], the “stoichiometry N” value turned out to be 2.

B3: Sphingomonas paucimobilis serine palmitoyltransferase V246M (mimic of hLCB2a V359M) (enzyme)
chain: MTEAAAQPHALPADAPDIAPERDLLSKFDGLIAERQKLLDSGVTDPFAIVMEQVKSPTEAVIRGKDTILLGTYNYMGMTFDPDVIAAGKEALEKFGSGTNGSRMLNGTFHDHMEVEQALRDFYGTTGAIVFSTGYMANLGIISTLAGKGEYVILDADSHASIYDGCQQGNAEIVRFRHNSVEDLDKRLGRLPKEPAKLVVLEGVYSMLGDIAPLKEMVAVAKKHGAMVLVDEAHSMGFFGPNGRGMYEAQGLEGQIDFVVGTFSKSVGTVGGFVVSNHPKFEAVRLACRPYIFTASLPPSVVATATTSIRKLMTAHEKRERLWSNARALHGGLKAMGFRLGTETCDSAIVAVMLEDQEQAAMMWQALLDGGLYVNMARPPATPAGTFLLRCSICAEHTPAQIQTVLGMFQAAGRAVGVIG
modifications: PLP cofactor covalently bound as an imine to Lys265
notes: serine palmitoyltransferase of Sphingomonas paucimobilis with V246M, made on pET 28a/Sp SPT; The PDB entries are of the wild-type parent; also called Sp SPT V246M; SPT V246M
With B3, the “stoichiometry N” value in data set [9] worked out at 2.
